The record followed here is a protein production outcome set (Wang et al. 2014).

This data set is described as follows: label from the status in PepcDB records.

Turning to “MKTFEVMIQTDSKGYLDAKFGGNAPKAFLNSNGLPTYSPKISWQKVEGAQSYALELIDHDAQKVCGMPFVHWVVGNIAHNVLEENASMMDKRIVQGVNSLTQGFIRSPLNESEKQRSNLNNSVYIGPMPPNGDHHYLIQVYALDIPKLALKAPFFLGDLHDKMRNHIIAIGRKEFLYKQFVRK”, the protein production entry is given as “not failed”. In the case of “MKTGDKQFAVIGLGRFGLAVCKELQDSGSQVLAVDINEDRVKEAAGFVSQAIVANCTHEETVAELKLDDYDMVMIAIGADVNASILATLIAKEAGVKSVWVKANDRFQARVLQKIGADHIIMPERDMGIRVARKMLDKRVLEFHPLGSGLAMTEFVVGSRLMGKTLSDLALCKVEGVQVLGFKRGPEIIKAPDMSTTLEIGDLIIVVGPQDKLANKLKSLLEHHHHHH”, the protein production result was “failed”. The same measure for “MKTGKELKPGTVIRLENDPWLVQKAEFTKSGRNSAIMKTKLKNLLTGYKTEIVYSADDKLDDVILDRKEATLSFISGDTYTFMDTTDYTMYELNAEDIESVLPFVEEGMTDVCEAVFFDERLVSVELPTTIVRQVDYTEGSARGDTSGKVMKPAKLKNGTELSVADFIEIGDMIEIDTREGGSYKGRAKLEHHHHHH”: “failed”. As to “MKTHFVKLLTQPESAWVQIRSEEQRKPWQYLPHLLLWALVPALCLLIGVTQVGWSLVDAERVRLSLASAMQLALLLYLTALLGTVLMGGFIRWMSRPFEARPTLNQCVGFAAYTATPYFIAGISGLYPSRWLAVAALLVASAYASYLLLVGLPKFMYLNQERGRLYAASVWGVGLLVLVTILVSMILFWFNVLAPQYLRPLAAL”, the protein production result is listed as “failed”. As to “MKTINVFHYDAFTNKPNMGNPAGIVLDADGLTEEEMQRIAEKVGFNETSFVLSSEVADIRMRYFTPGYEMDLCGHGTVGTIYALRERGLLEEKASLTIETKAGILPIQIGVNENGETFIKMRQTAPQFKDFAGSKEELAHSIGLEVNDLDVSLPIVYGSTGNWTVIVPVKNLDVCERMKPNNEVFPSVLKEIPNASIHPICLETYDEKVHMHGRHFSSAYAGTIEDPVTGTASGVMGAYYATYVEKDFDHEMELIVEQGQEIHKDGRVTVYVTKDVESEKLQIDIAGTAVYVKEFEVLI”, the protein production result is on record as “failed”.

For the sequence “MKTKNKILPEQEEEKTFQYRTYGKGELALLYLPNILQQSAVDRFNEWIEAAPGLKERLLATGMNPRARYYTPAQVRLIIEVLQEP”, the protein production entry is “failed”. For the sequence “MKTLFWRTLVVIFIILGVIGAILPGMPTTVFLILAAWAASKGWPEMDEWLLNHPKYGPTLRDWRAHGTVPRKAKWIASIMMLISAIMMLFTNAPFWVKVFTDTTMLIVAIWLWLRPEPVKLPLESPTLHQNTEDEHV”, the protein production entry is reported as “failed”.

For “MKTLLIIAHAPSENTKLMAEAVLKGAQHPDIEQVQTRWVRPLEATPEDVLSCDGIIMGTTENLGYMSGALKDFFDRCYYPCLEVKQGLPCALYVRAGNDGTGTCRAVETICTGLRWNWIQPPLVCRGDWQTLFIEQCEELGMTMAAGLDVGIY”, the protein production entry is “failed”. The same measure for “MKTNSEELTVFVQVVESGSFSRAAEQLEMANSAVSRIVKRLEEKLGVNLLNRTTRQLNLTEEGAQYFRRAQRILQEMAAAETEMLAVHEVPQGVLRVDSAMPMVLHLLAPLAAKFNERYPHIRLSLVSSEGYINLIERKVDIALRAGELDDSGLRARHLFDSHFRVVASPEYLAKHGTPQSAEDLANHQCLGFTEPGSLNTWAVLDAQGNPYKISPHFTASSGEILRSLCLSSCGIACLSDFLVDNDITEGKLIPLFAEQTSNKTHPFNAVYYSDKAVNLRLRVFLDFLVKELGKNMNRTNTK”: “not failed”; for “MKTRKIPLRKSVVSNEVIDKRDLLRIVKNKEGQVFIDPTGKANGRGAYIKLDNAEALEAKKKKVFNRSFSMEVEESFYDELIAYVDHKVKRRELGLE”: “not failed”; for “MKTSIIILTCNNLRYSRRCIESIKKYTEKEAYEIIVVDNNSNDGTRNWLSKQKAIKKIYNNVNVGFPRGCNMGIKVACGSEVLLLNNDVVVTHNWLNNLRNCLYSSYEIGAVGPISNNCSNGQKINVRYDSIEDMHRFSKKYNISNKKKWTEVKRLIGFCFLIKRNVIRKVGLFDERFTPGNFEDDDYCIRMRKIGFRLMLCKDTFVHHYGSVSFKNTQYLKLLEVNKSKLEKKWGKSYDKLVLEHHHHHH”: “failed”. As for “MKTSRECFSSAGGSPMIRATSARSPPVPQSALPIGSLLSAPRPAFTETEAQGLARTHFGLDGTALPLTSERDQNFRLATPRGAFVLKIANAAEPRGVTECQTLALLHLEAVAPGLPVPRVIRTREGAPWTELAGGNLLRLLTWVEGEPLWRARRGAAQRRAVGLCLGGIAAALADFSHPSADHELLWDIRHAARLRALLPAIPDARTAVLAERVLDRFETAVAPRLADLPWQVVHNDMNPHNIMVDPANADRVAGVIDFGDLVRTARVCDLAVAGSYQVDPGDPAGTLADLVAGYHAANPLRPEEVELLPDLVAARMVTTIAIASARAAQQPDNAPYILRNLPASAAGLEALTALAPGAAAAALLRATEAA”, the protein production result is recorded as “failed”. The same measure for “MKTTFLSLCFLLFFPLTGYSWQTAVTHISFHDLQRHRQLDSIIYYPTADQGETQLLSDTAVFRGISVLPNAPLAEGKFPLVVLSHGSGGNNTSLAWLADKLVQQGMVVVAANHPGSTTGDSIPAQSAQLWLQTEDISFIISTLLSDPRWKSALDEQAIGVIGHSKGGYSAIATLGATLSRPHFIASCQQQPEQPNCQFYTHAGVTLDQLSAEKFEGNYADKRLRFAIALDPGMVPFYQKSSLLHLSAPLLLINADYFISPNESLNLGGATWVKQLNQPGITAVTLTKSGHFDFLPLCKPAAGAILAEEGEAFICATPAVEREKLHQQTVQQILTYLQ”: “failed”; for “MKTTKIVIASLVSLTMVSNPLLTFAATNDVIDNTTEITTDKETSSTQPTIKNTLKAGQTQSFNDWFPDDNFASEVAAAFEMQATDTISEEQLATLTSLDCHNSSITDMTGIEKLTGLTKLICTSNNITTLDLSQNTNLTYLACDSNKLTNLDVTPLTKLTYLNCDTNKLTKLDVSQNPLLTYLNCARNTLTEIDVSHNTQLTELDCHLNKKITKLDVTPQTQLTTLDCSFNKITELDVSQNKLLNRLNCDTNNITKLDLNQNIQLTFLDCSSNKLTEIDVTPLTQLTYFDCSVNPLTELDVSTLSKLTTLHCIQTDLLEIDLTHNTQLIYFQAEGCRKIKELDVTHNTQLYLLDCQAAGITELDLSQNPKLVYLYLNNTELTELDVSHNTKLKSLSCVNAHIQDFSSVGKIPALNNNFEAEGQTITMPKETLTNNSLTIAVSPDLLDQFGNPMNIEPGDGGVYDQATNTITWENLSTDNPAVTYTFTSENGAIVGTVTTPFEAPQPIKGEDVTVHYLDDKGEKLADDEVLSGNLDDPYTSSAKDIPDYTLTTTPDNATGTFTTTSQSVTYVYTKNIVAAEPVTVNYVDDTGKTLSPSEILNGNVGDTYNATAKQIDGYTLSAEPTNATGQFTSSAQTVNYIYTKNPAPEKGVVEIHYVDEDNKQLNSTTEISGTIGDNYTTEPKTIEGYTLTTTPGNATGTFTTGSQTVTYVYTKNIEAAEPITVNYVDANGKTLAPSETLNGNVGDTYKATAKQIDGYTLSAEPTNATGQFTSSAQTVNYIYTKNTNTDQPLPTKKPTNTTPTKPSNLKTTEVKKASDTLPKTGDSAPWKSALLGVFLSSTALVIWKKKK”: “failed”. Consider “MKTTQRTAGWYHVMAAVTVMIWGTTFVATKVLIKYGLSPVDILFYRFLLAYICIWFFSPRVLLAKSWQDELRFVGLGLCGGSLYFVAENTALGMTLASNVSLIICTTPILTALLAPFFYKGDKLKARLIGGSLMALIGVGLVVFNGSFILQLSPAGDILTLIAALMWAFYCLLLRRMNTHYPTLFITRKVFFYGLVTLLPLFLVYPLQTDIHILFRPVVALNLLFLGVIASMLCYIMWNTAVKQLGVVCATSYIYVVPLITLLTSAIVIDETITIVALLGSALILSGVYIAERGVNLKK”, for which the protein production entry is listed as “failed”.

Consider “MKTVKDAEIFCQYIAHEYLGKRNYKLLEDIIDKRITIIGTGAHEVSRNIQELMTALNKEAELWDGTFIIEDEWYQGTELADNLFVVIGQIEGRQNSNDQLVYSFSSRVTFIIEYHDMQWKIIHVHQSVPDYSQGDDEFFPQRIVEESNAQLKKEIAEKTKELEMSNQQVIYNLRHDYLTGILNRPSLEKEVTEAMSNHQYGVILVLDIDYFKEVNDNNGHPYGDEVLIKLANTMQESFKSGICGRIGGDEFIIYLALDDANYDAIEKTIKEFKQNWQKNITTIDRSSTITLSIGGAYYPKHGKNYQELWSNADKALYLSKNNGRNRISIYQL”, for which the protein production result is “failed”.
